The values below come from patent CN115433277A.

In this experiment the target is CD38 FC融合标签蛋白 (CD38 Fc fusion tag protein, expressed in 293F cells) (UniProt P28907). The experiment can be described thus: indirect ELISA, CD38 protein coated at 1 μg/ml, B cell culture supernatant, goat anti-rabbit IgG-HRP. A general note: An ELISA detects its analyte on a solid surface through an enzyme-linked reagent.

B1: 命名为8H7的兔重组单克隆抗体 (anti-CD38 rabbit recombinant monoclonal antibody 8H7) (antibody, V domains shown)
VH: QSVKESEGGLFKPTDTLTLTCTVSGFSLSSYGVIWVRQAPGKGLEYIGFVAVGGTTYYANWAKSRSTITRNTNENTVTLKMTSLTAADTATYFCVRNGVSGSSDIWGPGTLVTVSS
VL: AYDMTQTPASVSEPVGGTVTIKCQASQSIYSYLSWYQQKLGQPPKLLIYSASTLASGVSSRFKGSGSGTEYTLTISGVECADAATYYCQQDYSGSNVDNTFGGGTEVVVK
In turn, B1 displayed an OD450 of 1.78 OD450.

B2: 命名为8A1的兔重组单克隆抗体 (anti-CD38 rabbit recombinant monoclonal antibody 8A1) (antibody, V domains shown)
VH: QSLEESGGDLVKPAGSLTLTCTASGFSFSTSYWICWVRQAPGKGLEWIACIYTGSGSTPYASWAKGRFTISKTSSTTVTLQVTSLTAADTATYFCARDPGVHSGTNLWGQGTLVSVSS
VL: DVVMTQTPASVSAAVGGTVTIKCQASEDINTLLAWYQQKPGQPPKLLIYLASNLASGVSSRFKGSRSGTEFTLTISDLECADAATYYCQCTYYGSTYGGTFGGGTEVVVK
Molecule B2 had an OD450 of 2.23 OD450.
